Measured values reported in patent CN115073602A (SUZHOU ABCARTA MEDICAL TECH CO LTD, dated 2022).

Columns and labels:
CD3抗原 (SEQ ID NO:1 合成多肽) = biological target: T1, CD3抗原 (SEQ ID NO:1 合成多肽); experiment: ELISA screening of hybridoma clones on CD3 antigen (SEQ ID NO:1)
T1 construct: KLH/OVA conjugation is stated for immunisation only; also called CD3的多肽
T1 peptide: KGQRDLYSGLNQRRI

CD3蛋白 (表达CD3蛋白的细胞) = biological target: T2, CD3蛋白 (表达CD3蛋白的细胞); experiment: flow cytometry on CD3-expressing cells, against blank control without antibody
T2 construct: whole, on cells; also called 表达CD3蛋白细胞
T2 sequence (P07766 23-207): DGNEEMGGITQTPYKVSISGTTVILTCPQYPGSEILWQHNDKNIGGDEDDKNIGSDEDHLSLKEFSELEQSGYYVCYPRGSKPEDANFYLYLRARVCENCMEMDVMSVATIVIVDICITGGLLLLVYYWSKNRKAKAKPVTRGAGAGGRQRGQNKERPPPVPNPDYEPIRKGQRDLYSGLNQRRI

B1: 230B2F6抗CD3重组兔单克隆抗体 (antibody, V domains shown)
VH: QSLEESGGRLVTPGTPLTLTCTASGFSLNDYWMSWVRQAPGKGLEWIGIIIRGGTTWYANWVKGRFTISKTSTTVDLKMTSPTTEDTATYFCARIGGGNTGFNLWGPGTLVTVSS
VL: AQVLTQTPSSVSEPVGGTVTINCQASENIYISLAWYQQKPGQPPNLLIYDASDLASGVPSRFSGSGSGTEFTLTISGVQCEDAATYYCQSYNYSSVTFGGGTEVVVK
notes: also called 230B2F6抗体; 230B2F6抗CD3单克隆抗体
- binding result (CD3抗原 (SEQ ID NO:1 合成多肽)): binds
- fold increase of MFI over blank control (CD3蛋白 (表达CD3蛋白的细胞)): 1070 fold
